Reference: the supplement of paper PMC10065799, “High-throughput profiling of sequence recognition by tyrosine kinases and SH2 domains using bacterial peptide display” (eLife, 2023)
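Further: 11-residue human phosphosite peptides and single-mutation variants displayed on the E. coli surface, counted by deep sequencing, each peptide's frequency after selection divided by its frequency in the unselected input library; frequency after pTyr selection over input frequency; kinase dosed for 20-30% of maximal phosphorylation in three min.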

The sequences below were run on Fer (mouse) (assay: phosphorylation enrichment, bacterial display (enrichment ratio); higher = better substrate or ligand; peptides without Tyr show the background).
CNTIHYNFMCN [TP53_Y234_T230N_YF] was tested, and the phosphorylation enrichment was 0.483.
ALWYIYSHTRS [ENG_Y614] gave a phosphorylation enrichment of 0.572.
RSFSPYDFQPC [TNS1_Y796_YF] gave a phosphorylation enrichment of 0.822.
In the case of NAMRRHIEEFQ [MNS1_Y244_Y244H], the phosphorylation enrichment is reported as 0.346.
With HGAKVYIDPFT [EPHB4_Y590_T587A] the phosphorylation enrichment was 0.715.
LGGSPYPRVPV [FGFR1_Y701_G703R] was tested, and the phosphorylation enrichment was 0.444.
For LSQQVYRVNLS [FAT4_Y480_F475L], the phosphorylation enrichment was 0.572.
For RPFVFYFSFLL [PTEN_Y177_R173P_YF], the phosphorylation enrichment was 0.587.
With IHADICRWFNI [MARS1_Y344_Y344C] the phosphorylation enrichment was 0.464.
For ESPGLYGFLNV [BCR_Y910], the phosphorylation enrichment was 1.23.
In the case of FKPGFYNLKEK [LAMA1_Y490_C485Y_YF], the phosphorylation enrichment is reported as 0.61.
DAICFYRMENA [NPHS2_Y195_YF] showed a phosphorylation enrichment of 0.592.
WFKKFYDANYD [MAPRE2_Y158] was tested, and the phosphorylation enrichment was 0.398.
AHAGEYGVEAL [HBA1_Y25_A27V] gave a phosphorylation enrichment of 0.448.
TVMGLYQKSSL [MYH7_Y609_V606M] gave a phosphorylation enrichment of 0.527.
For PFTRNYYVWAV [CYBA_Y87_R90W], the phosphorylation enrichment was 1.2.
For GSETPYMDRTP [ESS2_Y335_V336M], the phosphorylation enrichment was 0.363.
In the case of REVKAYGAGLL [TH_Y419_G414R], the phosphorylation enrichment is reported as 0.853.
HELYVYKSDEN [DOCK3_Y548_C550S] showed a phosphorylation enrichment of 0.879.
IIEDPYFGNDS [ACP1_Y132_YF] gave a phosphorylation enrichment of 0.711.
RSHLSYDVTPE [IQGAP3_Y1098_P1097S] gave a phosphorylation enrichment of 0.453.
RLQAAYNLVKR [PFKM_Y103_R100Q] was tested, and the phosphorylation enrichment was 0.494.
IVFVICDEVVK [SLC25A1_Y297_Y297C] showed a phosphorylation enrichment of 0.498.
SSEFHCVGGFF [CTSC_Y347_Y347C_YF] was tested, and the phosphorylation enrichment was 0.521.
Work on QEIATYRRLQE [KRT14_Y415_L419Q] yielded a phosphorylation enrichment of 0.506.
AHAGKYGAEAL [HBA1_Y25_E24K] showed a phosphorylation enrichment of 0.342.
Sequence PGVDIYISPNM [PADI3_Y51] has a phosphorylation enrichment of 0.814.
For MEFAKYGSLRG [RET_Y809_V804M_YF], the phosphorylation enrichment was 0.348.
VDSNPYSHLMA [UBA5_Y53_R55H] showed a phosphorylation enrichment of 1.25.

What follows are sequences tested on c-Src in the same assay as above.
For CNTIHYNFMCN [TP53_Y234_T230N_YF], the phosphorylation enrichment was 0.498.
Sequence ALWYIYSHTRS [ENG_Y614] has a phosphorylation enrichment of 0.423.
With RSFSPYDFQPC [TNS1_Y796_YF] the phosphorylation enrichment was 5.06.
NAMRRHIEEFQ [MNS1_Y244_Y244H] showed a phosphorylation enrichment of 0.347.
Sequence HGAKVYIDPFT [EPHB4_Y590_T587A] has a phosphorylation enrichment of 0.713.
LGGSPYPRVPV [FGFR1_Y701_G703R] gave a phosphorylation enrichment of 0.426.
In the case of LSQQVYRVNLS [FAT4_Y480_F475L], the phosphorylation enrichment is reported as 0.836.
RPFVFYFSFLL [PTEN_Y177_R173P_YF] showed a phosphorylation enrichment of 0.982.
IHADICRWFNI [MARS1_Y344_Y344C] gave a phosphorylation enrichment of 0.334.
ESPGLYGFLNV [BCR_Y910] showed a phosphorylation enrichment of 1.23.
For FKPGFYNLKEK [LAMA1_Y490_C485Y_YF], the phosphorylation enrichment was 0.466.
For DAICFYRMENA [NPHS2_Y195_YF], the phosphorylation enrichment was 2.96.
WFKKFYDANYD [MAPRE2_Y158] was tested, and the phosphorylation enrichment was 0.364.
With AHAGEYGVEAL [HBA1_Y25_A27V] the phosphorylation enrichment was 0.402.
Sequence TVMGLYQKSSL [MYH7_Y609_V606M] has a phosphorylation enrichment of 0.563.
Work on PFTRNYYVWAV [CYBA_Y87_R90W] yielded a phosphorylation enrichment of 0.777.
In the case of GSETPYMDRTP [ESS2_Y335_V336M], the phosphorylation enrichment is reported as 0.454.
Sequence REVKAYGAGLL [TH_Y419_G414R] has a phosphorylation enrichment of 0.363.
Work on HELYVYKSDEN [DOCK3_Y548_C550S] yielded a phosphorylation enrichment of 0.917.
Sequence IIEDPYFGNDS [ACP1_Y132_YF] has a phosphorylation enrichment of 1.74.
In the case of RSHLSYDVTPE [IQGAP3_Y1098_P1097S], the phosphorylation enrichment is reported as 0.561.
RLQAAYNLVKR [PFKM_Y103_R100Q] was tested, and the phosphorylation enrichment was 0.526.
Work on IVFVICDEVVK [SLC25A1_Y297_Y297C] yielded a phosphorylation enrichment of 0.393.
SSEFHCVGGFF [CTSC_Y347_Y347C_YF] was tested, and the phosphorylation enrichment was 0.458.
For QEIATYRRLQE [KRT14_Y415_L419Q], the phosphorylation enrichment was 0.717.
AHAGKYGAEAL [HBA1_Y25_E24K] showed a phosphorylation enrichment of 0.387.
PGVDIYISPNM [PADI3_Y51] gave a phosphorylation enrichment of 0.894.
Sequence MEFAKYGSLRG [RET_Y809_V804M_YF] has a phosphorylation enrichment of 0.484.
VDSNPYSHLMA [UBA5_Y53_R55H] showed a phosphorylation enrichment of 0.862.

The sequences below were run against Fes (UniProt P07332) in the same assay as above.
Sequence of Fes (P07332 whole entry, looked up): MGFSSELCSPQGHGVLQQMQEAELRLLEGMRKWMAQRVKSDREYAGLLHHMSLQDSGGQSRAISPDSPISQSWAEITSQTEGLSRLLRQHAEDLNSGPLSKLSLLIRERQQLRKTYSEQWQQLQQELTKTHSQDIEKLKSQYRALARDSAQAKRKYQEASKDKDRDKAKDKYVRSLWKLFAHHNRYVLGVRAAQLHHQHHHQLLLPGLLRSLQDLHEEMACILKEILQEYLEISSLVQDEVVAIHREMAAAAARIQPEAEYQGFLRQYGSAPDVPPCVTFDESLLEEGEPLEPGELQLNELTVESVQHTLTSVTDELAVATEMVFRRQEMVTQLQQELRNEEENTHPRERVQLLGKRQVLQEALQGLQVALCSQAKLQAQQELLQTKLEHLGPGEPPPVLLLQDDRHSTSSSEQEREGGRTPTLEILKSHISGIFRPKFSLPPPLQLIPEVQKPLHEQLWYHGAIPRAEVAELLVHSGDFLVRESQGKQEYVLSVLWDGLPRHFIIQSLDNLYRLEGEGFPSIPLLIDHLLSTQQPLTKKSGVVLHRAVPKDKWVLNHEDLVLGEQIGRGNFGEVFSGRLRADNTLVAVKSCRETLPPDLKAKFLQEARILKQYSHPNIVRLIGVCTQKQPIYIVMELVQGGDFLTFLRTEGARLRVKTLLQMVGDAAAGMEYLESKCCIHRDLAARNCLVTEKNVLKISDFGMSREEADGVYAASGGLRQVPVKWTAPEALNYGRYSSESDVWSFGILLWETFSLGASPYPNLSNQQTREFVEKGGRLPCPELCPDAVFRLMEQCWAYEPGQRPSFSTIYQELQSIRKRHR
For CNTIHYNFMCN [TP53_Y234_T230N_YF], the phosphorylation enrichment was 0.822.
Sequence ALWYIYSHTRS [ENG_Y614] has a phosphorylation enrichment of 1.33.
With RSFSPYDFQPC [TNS1_Y796_YF] the phosphorylation enrichment was 1.29.
NAMRRHIEEFQ [MNS1_Y244_Y244H] showed a phosphorylation enrichment of 0.741.
With HGAKVYIDPFT [EPHB4_Y590_T587A] the phosphorylation enrichment was 1.04.
With LGGSPYPRVPV [FGFR1_Y701_G703R] the phosphorylation enrichment was 0.55.
Sequence LSQQVYRVNLS [FAT4_Y480_F475L] has a phosphorylation enrichment of 0.751.
RPFVFYFSFLL [PTEN_Y177_R173P_YF] showed a phosphorylation enrichment of 1.29.
Work on IHADICRWFNI [MARS1_Y344_Y344C] yielded a phosphorylation enrichment of 1.18.
ESPGLYGFLNV [BCR_Y910] gave a phosphorylation enrichment of 1.1.
In the case of FKPGFYNLKEK [LAMA1_Y490_C485Y_YF], the phosphorylation enrichment is reported as 0.689.
DAICFYRMENA [NPHS2_Y195_YF] showed a phosphorylation enrichment of 1.47.
WFKKFYDANYD [MAPRE2_Y158] showed a phosphorylation enrichment of 1.03.
AHAGEYGVEAL [HBA1_Y25_A27V] showed a phosphorylation enrichment of 0.9.
TVMGLYQKSSL [MYH7_Y609_V606M] gave a phosphorylation enrichment of 0.797.
For PFTRNYYVWAV [CYBA_Y87_R90W], the phosphorylation enrichment was 1.12.
GSETPYMDRTP [ESS2_Y335_V336M] showed a phosphorylation enrichment of 0.715.
With REVKAYGAGLL [TH_Y419_G414R] the phosphorylation enrichment was 0.649.
In the case of HELYVYKSDEN [DOCK3_Y548_C550S], the phosphorylation enrichment is reported as 2.14.
With IIEDPYFGNDS [ACP1_Y132_YF] the phosphorylation enrichment was 1.62.
RSHLSYDVTPE [IQGAP3_Y1098_P1097S] showed a phosphorylation enrichment of 1.14.
RLQAAYNLVKR [PFKM_Y103_R100Q] was tested, and the phosphorylation enrichment was 1.19.
IVFVICDEVVK [SLC25A1_Y297_Y297C] showed a phosphorylation enrichment of 1.25.
For SSEFHCVGGFF [CTSC_Y347_Y347C_YF], the phosphorylation enrichment was 1.05.
QEIATYRRLQE [KRT14_Y415_L419Q] showed a phosphorylation enrichment of 0.803.
Work on AHAGKYGAEAL [HBA1_Y25_E24K] yielded a phosphorylation enrichment of 0.796.
With PGVDIYISPNM [PADI3_Y51] the phosphorylation enrichment was 1.8.
Sequence MEFAKYGSLRG [RET_Y809_V804M_YF] has a phosphorylation enrichment of 0.628.
VDSNPYSHLMA [UBA5_Y53_R55H] was tested, and the phosphorylation enrichment was 0.631.

The sequences below were run against Fyn (UniProt P06241) in the same assay as above.
Sequence of Fyn (P06241 whole entry, looked up): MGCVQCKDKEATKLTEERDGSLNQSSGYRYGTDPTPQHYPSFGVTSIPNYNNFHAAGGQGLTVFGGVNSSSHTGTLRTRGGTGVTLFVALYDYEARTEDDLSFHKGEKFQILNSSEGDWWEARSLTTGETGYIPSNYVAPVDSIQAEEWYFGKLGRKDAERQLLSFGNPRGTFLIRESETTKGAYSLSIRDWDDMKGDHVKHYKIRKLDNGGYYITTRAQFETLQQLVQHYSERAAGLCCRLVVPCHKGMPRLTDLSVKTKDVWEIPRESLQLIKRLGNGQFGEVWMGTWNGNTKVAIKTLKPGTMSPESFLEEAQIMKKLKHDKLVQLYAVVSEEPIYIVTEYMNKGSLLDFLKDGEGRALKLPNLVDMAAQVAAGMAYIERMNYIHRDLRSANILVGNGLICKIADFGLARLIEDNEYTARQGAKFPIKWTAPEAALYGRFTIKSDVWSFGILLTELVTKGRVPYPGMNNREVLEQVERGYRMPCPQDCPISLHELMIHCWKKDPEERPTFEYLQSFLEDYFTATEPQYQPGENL
CNTIHYNFMCN [TP53_Y234_T230N_YF] gave a phosphorylation enrichment of 0.419.
Sequence ALWYIYSHTRS [ENG_Y614] has a phosphorylation enrichment of 0.47.
RSFSPYDFQPC [TNS1_Y796_YF] was tested, and the phosphorylation enrichment was 5.66.
Sequence NAMRRHIEEFQ [MNS1_Y244_Y244H] has a phosphorylation enrichment of 0.367.
HGAKVYIDPFT [EPHB4_Y590_T587A] gave a phosphorylation enrichment of 0.792.
LGGSPYPRVPV [FGFR1_Y701_G703R] gave a phosphorylation enrichment of 0.429.
LSQQVYRVNLS [FAT4_Y480_F475L] showed a phosphorylation enrichment of 0.616.
With RPFVFYFSFLL [PTEN_Y177_R173P_YF] the phosphorylation enrichment was 0.76.
In the case of IHADICRWFNI [MARS1_Y344_Y344C], the phosphorylation enrichment is reported as 0.395.
For ESPGLYGFLNV [BCR_Y910], the phosphorylation enrichment was 1.48.
FKPGFYNLKEK [LAMA1_Y490_C485Y_YF] showed a phosphorylation enrichment of 0.466.
DAICFYRMENA [NPHS2_Y195_YF] gave a phosphorylation enrichment of 0.726.
WFKKFYDANYD [MAPRE2_Y158] showed a phosphorylation enrichment of 0.398.
In the case of AHAGEYGVEAL [HBA1_Y25_A27V], the phosphorylation enrichment is reported as 0.525.
For TVMGLYQKSSL [MYH7_Y609_V606M], the phosphorylation enrichment was 0.404.
PFTRNYYVWAV [CYBA_Y87_R90W] showed a phosphorylation enrichment of 0.744.
GSETPYMDRTP [ESS2_Y335_V336M] gave a phosphorylation enrichment of 0.344.
Sequence REVKAYGAGLL [TH_Y419_G414R] has a phosphorylation enrichment of 0.532.
Work on HELYVYKSDEN [DOCK3_Y548_C550S] yielded a phosphorylation enrichment of 0.849.
Sequence IIEDPYFGNDS [ACP1_Y132_YF] has a phosphorylation enrichment of 0.867.
With RSHLSYDVTPE [IQGAP3_Y1098_P1097S] the phosphorylation enrichment was 0.509.
RLQAAYNLVKR [PFKM_Y103_R100Q] was tested, and the phosphorylation enrichment was 0.731.
Work on IVFVICDEVVK [SLC25A1_Y297_Y297C] yielded a phosphorylation enrichment of 0.442.
SSEFHCVGGFF [CTSC_Y347_Y347C_YF] was tested, and the phosphorylation enrichment was 0.44.
For QEIATYRRLQE [KRT14_Y415_L419Q], the phosphorylation enrichment was 0.578.
AHAGKYGAEAL [HBA1_Y25_E24K] gave a phosphorylation enrichment of 0.423.
For PGVDIYISPNM [PADI3_Y51], the phosphorylation enrichment was 1.02.
Work on MEFAKYGSLRG [RET_Y809_V804M_YF] yielded a phosphorylation enrichment of 0.456.
VDSNPYSHLMA [UBA5_Y53_R55H] showed a phosphorylation enrichment of 0.639.
